B1: GST-P2P (1-332) fusion protein (other, not shown: a dimerising Fc or GST)
chain: MMEVKDPNMKGAMLTNTGKYAIPTIDAEAYAIGKKEKPPFLPEEPSSSSEEDDPIPAELLCLICKDIMTDAVVIPCCGNSSCDECIRTTLLESDKHTCPTCHQNDVSPDALIANKFLRQAVNNFKNETGYTKRLRKQLPPFLFLVPPPRPLSQRNLQPRSRSPILRQQDPVVFRYTVSPTCSDTKTAGSCSDSGTLSRLPAPSISSLTSNQSSLAPPVSGNPSSAPAPVPDITATVSISVHSEKSDGPFRDSDNKLLPAAALTSEHSKGASSIAITALMEEKGVPGTSPWNSIFVGQSLLHGQLIPTTGPVRINAARPGGGRPGWEHSNKLG
B2: GST-P2P (494-688) fusion protein (other, not shown: a dimerising Fc or GST)
chain: AQHIHALTLSPSAAHTLDLLHDHPHPPEEAEARSAMIVHMPDLMDIAHARSRSPPYRRYRSRSRSPPEFRGQSPTKRNVPREEKEREYFNRYREVPPPYDIKAYYGRSVDFRDPFEKERYREWERKYREWYEKYYKGYAVGAQPRPSANREDFSPERLLPLNIRNSPFTRGRREDYAAGQSHRNRNLGGNYPEKL
notes: also called GST-P2P (484-688)
B3: GST-P2P (918-1095) fusion protein (other, not shown: a dimerising Fc or GST)
chain: RPRSLRKINYLIAREKNEREKRKKSVDKDFESSSMKISKVEGTEIVKPSPKRKMEGDVEKLERTPEKDKIASSTTPAKKIKLNRETGKKIGNAENASTTKEPSEKLESTSSKIKQEKVKGKAKRKVAGSEGSSSTLVDYTSTSSTGGSPVRKSEEKTDTKRTVIKTMEEYNNDNTAPA

These binders were tested against T1, Rb1 tumor suppressor protein (human, UniProt P06400 2-928) (assay: GST pull-down from K562 lysate, Western blot with anti-Rb1).
T1 construct: Native protein from K562 lysate; also called pRb1; hypophosphorylated form of Rb1
T1 sequence (looked up): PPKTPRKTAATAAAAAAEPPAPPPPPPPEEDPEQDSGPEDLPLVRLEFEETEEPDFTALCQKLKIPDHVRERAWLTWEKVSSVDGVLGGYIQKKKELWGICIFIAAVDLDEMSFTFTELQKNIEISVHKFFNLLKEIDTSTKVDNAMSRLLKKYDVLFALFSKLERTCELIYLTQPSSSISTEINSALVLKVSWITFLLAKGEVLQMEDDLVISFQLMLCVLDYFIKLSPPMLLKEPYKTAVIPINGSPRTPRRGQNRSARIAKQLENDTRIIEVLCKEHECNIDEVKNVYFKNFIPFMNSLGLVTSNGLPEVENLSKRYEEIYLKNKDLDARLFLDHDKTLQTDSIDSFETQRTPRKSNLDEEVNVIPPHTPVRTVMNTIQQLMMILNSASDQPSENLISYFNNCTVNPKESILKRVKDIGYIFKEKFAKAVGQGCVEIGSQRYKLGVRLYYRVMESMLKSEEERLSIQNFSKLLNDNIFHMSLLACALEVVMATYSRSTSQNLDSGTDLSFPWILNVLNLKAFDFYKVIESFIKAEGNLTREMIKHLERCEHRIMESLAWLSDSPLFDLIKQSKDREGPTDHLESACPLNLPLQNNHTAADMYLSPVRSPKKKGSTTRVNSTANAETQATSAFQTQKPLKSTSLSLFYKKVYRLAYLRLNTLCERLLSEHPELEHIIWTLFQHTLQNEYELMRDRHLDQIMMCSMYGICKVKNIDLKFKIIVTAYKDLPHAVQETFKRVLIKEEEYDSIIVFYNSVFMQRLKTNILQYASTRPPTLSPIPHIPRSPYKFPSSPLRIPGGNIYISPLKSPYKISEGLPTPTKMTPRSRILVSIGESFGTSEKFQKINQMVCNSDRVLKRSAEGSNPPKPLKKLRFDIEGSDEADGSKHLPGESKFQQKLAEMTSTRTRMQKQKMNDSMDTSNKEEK
Text: As precipitation controls, aliquots of the K562 lysate were immunoprecipitated with anti-Rb1 antibody IF8 or normal rabbit sera. Bound proteins were separated by electrophoresis in a 7% SDS-polyacrylamide gel and transferred to a nitrocellulose membrane. An aliquot of the K-562 crude lysate was included as a positive control for Western analysis. Proteins were visualized by probing the blot with anti-Rb1 antibodies IF-8 or C15. […] Bound proteins were separated by electrophoresis in a 7% SDS-polyacrylamide gel and transferred to a nitrocellulose membrane. Proteins were visualized by probing the blot with anti-Rb1 antibodies IF8 or C15.
Glutathione S-transferase (GST)-P2P fusion proteins were expressed and recovered on glutathione-sepharose beads as described above. Whole-cell lysates of K562 cells (1 ×10^7 cells/sample) were rocked with the beads for 1 hour at 4° C. and then washed five times with NETN buffer. The beads were then boiled in 1× SDS loading buffer and the proteins separated on SDS-polyacrylamide gels and transferred to nitrocellulose membranes. Competition experiments were performed by adding an excess of the 6X-His E1a fusion protein to the cellular lysates prior to the addition of the GST-P2P fusion proteins. The Rb1 protein was visualized by immunoblotting using anti-Rb1 antibodies IF8 or C15 (Santa Cruz Biotechnology, Santa Cruz, Calif.). These antibodies were also used to immunoprecipitate native Rb1 from the cellular lysates to serve as a positive control following the manufacturers' protocol.

Binding result, no binding:
B1, B2, B3
